Consider one substance from paper PMC2175255.

The target in the test is erbB2 receptor tyrosine kinase (rat (endogenous in primary Schwann cells)) (UniProt P06494). Briefly: co-IP.
Sequence of UniProt P06494 (P06494 23-1257): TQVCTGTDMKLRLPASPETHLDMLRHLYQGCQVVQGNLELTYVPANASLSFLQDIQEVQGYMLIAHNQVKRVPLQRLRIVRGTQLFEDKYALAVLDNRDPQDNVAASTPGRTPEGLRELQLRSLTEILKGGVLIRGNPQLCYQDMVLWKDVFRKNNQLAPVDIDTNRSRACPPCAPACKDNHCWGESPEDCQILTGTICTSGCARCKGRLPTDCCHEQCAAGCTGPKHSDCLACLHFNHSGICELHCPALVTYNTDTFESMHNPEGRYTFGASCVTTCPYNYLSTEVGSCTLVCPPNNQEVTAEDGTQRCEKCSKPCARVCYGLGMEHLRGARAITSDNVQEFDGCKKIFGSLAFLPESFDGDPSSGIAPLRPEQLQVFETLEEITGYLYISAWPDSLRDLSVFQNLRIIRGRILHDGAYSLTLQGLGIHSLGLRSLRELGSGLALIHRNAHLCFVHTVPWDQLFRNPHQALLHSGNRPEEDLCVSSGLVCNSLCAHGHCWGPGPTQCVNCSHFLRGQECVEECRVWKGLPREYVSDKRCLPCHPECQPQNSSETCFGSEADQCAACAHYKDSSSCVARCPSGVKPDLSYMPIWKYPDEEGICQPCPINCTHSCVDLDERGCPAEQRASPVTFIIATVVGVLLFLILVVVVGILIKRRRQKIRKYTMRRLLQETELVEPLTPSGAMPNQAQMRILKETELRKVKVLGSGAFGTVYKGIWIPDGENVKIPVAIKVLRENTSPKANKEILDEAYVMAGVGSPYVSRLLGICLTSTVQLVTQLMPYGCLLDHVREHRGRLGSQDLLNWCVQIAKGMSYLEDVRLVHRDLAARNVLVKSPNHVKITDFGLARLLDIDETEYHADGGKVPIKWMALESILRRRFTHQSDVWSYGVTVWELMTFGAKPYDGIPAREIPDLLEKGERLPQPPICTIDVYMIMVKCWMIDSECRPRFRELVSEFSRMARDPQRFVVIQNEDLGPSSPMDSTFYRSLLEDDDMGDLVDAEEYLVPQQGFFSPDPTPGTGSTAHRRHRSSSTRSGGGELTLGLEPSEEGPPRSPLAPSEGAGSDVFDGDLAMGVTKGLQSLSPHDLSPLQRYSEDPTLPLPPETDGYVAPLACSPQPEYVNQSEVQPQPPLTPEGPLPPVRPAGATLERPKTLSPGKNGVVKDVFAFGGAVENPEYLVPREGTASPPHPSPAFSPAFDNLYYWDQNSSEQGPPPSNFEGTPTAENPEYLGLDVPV

In the case of “CD44 transmembrane glycoprotein (from UniProt P26051 22-503) (natural protein)”, the fold CD44 co-immunoprecipitated with rh-GGF2 against untreated cells worked out at 2 fold.
